The record followed here is WO2019016784A1 (dated 2019).

B1: aNCL-CDR3-L VHH (VHH)
VHH: QVQLQESGGGLVQPGGSLRLSCAASGRTFSDHSGYTYTIGWFRQAPGKEREFVARIYWSSGNTYYADSVKGRFAISRDIAKNTVDLTMNNLEPEDTAVYYCAASGGGSPQRRSARLSASGGGSWGQGTQVTVSS
notes: The entry holds leader peptide, His tag and HA tag; also called CDR3-grafted VHH with SGGGS linkers
B2: aNCL-CDR1 VHH (VHH)
VHH: QVQLQESGGGLVQPGGSLRLSCAASPQRRSARLSAWFRQAPGKEREFVARIYWSSGNTYYADSVKGRFAISRDIAKNTVDLTMNNLEPEDTAVYYCAARDGIPTSRSVESYNYWGQGTQVTVSS
notes: The entry is expected to hold leader peptide, His tag and HA tag like the others; also called aNCL-CDRl; a-NCL-CDRl VHH
B3: aNCL-CDR1-L VHH (VHH)
VHH: QVQLQESGGGLVQPGGSLRLSCAASSGGGSPQRRSARLSASGGGSWFRQAPGKEREFVARIYWSSGNTYYADSVKGRFAISRDIAKNTVDLTMNNLEPEDTAVYYCAARDGIPTSRSVESYNYWGQGTQVTVSS
notes: The entry holds leader peptide, His tag and HA tag; also called aNCL-CDRl-L; CDR1-grafted VHH with SGGGS linkers
B4: aNCL-CDR3 VHH (VHH)
VHH: QVQLQESGGGLVQPGGSLRLSCAASGRTFSDHSGYTYTIGWFRQAPGKEREFVARIYWSSGNTYYADSVKGRFAISRDIAKNTVDLTMNNLEPEDTAVYYCAAPQRRSARLSAWGQGTQVTVSS
notes: The entry holds leader peptide, His tag and HA tag; also called CDR3-grafted VHH; anti-nucleolin VHH

T2 sequence (P19338 whole entry, form in doubt): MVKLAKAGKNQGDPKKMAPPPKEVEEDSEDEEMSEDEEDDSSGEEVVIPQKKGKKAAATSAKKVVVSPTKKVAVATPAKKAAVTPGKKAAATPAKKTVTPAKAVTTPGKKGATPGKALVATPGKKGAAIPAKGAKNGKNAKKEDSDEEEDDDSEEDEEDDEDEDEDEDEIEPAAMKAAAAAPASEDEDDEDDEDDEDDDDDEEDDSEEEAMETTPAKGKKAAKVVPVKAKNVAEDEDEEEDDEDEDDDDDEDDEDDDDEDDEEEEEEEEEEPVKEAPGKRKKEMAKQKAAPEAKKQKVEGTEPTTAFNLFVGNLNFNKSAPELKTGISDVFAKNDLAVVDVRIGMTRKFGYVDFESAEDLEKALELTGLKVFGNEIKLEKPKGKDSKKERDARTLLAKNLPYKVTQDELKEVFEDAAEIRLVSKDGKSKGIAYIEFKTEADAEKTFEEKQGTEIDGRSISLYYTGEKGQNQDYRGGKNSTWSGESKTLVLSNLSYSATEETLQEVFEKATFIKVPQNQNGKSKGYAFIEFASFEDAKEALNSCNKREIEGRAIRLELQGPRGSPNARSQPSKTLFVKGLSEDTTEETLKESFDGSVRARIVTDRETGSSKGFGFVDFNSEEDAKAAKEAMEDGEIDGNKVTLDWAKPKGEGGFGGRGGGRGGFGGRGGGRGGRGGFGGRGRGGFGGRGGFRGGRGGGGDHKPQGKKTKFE
T1 sequence (P01375 77-233 limits assumed): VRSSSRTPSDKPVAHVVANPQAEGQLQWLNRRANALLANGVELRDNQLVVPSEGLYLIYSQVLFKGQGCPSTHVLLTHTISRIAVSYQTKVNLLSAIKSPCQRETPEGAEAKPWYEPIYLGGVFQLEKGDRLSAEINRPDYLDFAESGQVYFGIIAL

The first assay addresses T1, human recombinant TNF-a (human, UniProt P01375 77-233).
T1 construct: Coated at 200 ng per well in the ELISA; also called human TNF-a
As to the kind of experiment: ELISA, 200 ng human TNF-a coated, 100 pmol VHH, anti-HA-peroxidase detection.
For the molecule B1, the “percent lower binding to TNF-a than the parental VHH” value is approximately 40%.
Same read-out and setting: the value for B2 was approximately 40%.
B3: the “percent lower binding to TNF-a than the parental VHH” value was approximately 40%.
Still for that read-out and setting: with B4 the figure was approximately 40%.

A further assay concerns the target T2, human recombinant nucleolin (human, UniProt P19338 1-710, limits assumed).
T2 construct: also called human nucleolin
As to the kind of experiment: ELISA, 100 ng human nucleolin coated, 100 pmol VHH, anti-HA-peroxidase detection.
B1: the “fold increased nucleolin binding relative to the parental VHH” value was found to be 3 fold.
On the same count and under the same terms, the value for B2 was 2 fold; that for B3 was 2 fold.
As to B4, the “fold increased nucleolin binding relative to the parental VHH” value amounted to 3 fold.
